US20210214454A1

Legend:
[1] = biological target: human CD40 protein expressed on cells (human) (UniProt P25942); assay: flow cytometry on CHO-S cells transiently expressing human CD40; AF647 anti-human IgG (H+L) secondary; GeoMean RL1-H
[2] = biological target: cynomolgus CD40 protein expressed on CHO-S cells (cynomolgus) (UniProt G7PG38); assay: flow cytometry on CHO-S cells transiently expressing cynomolgus CD40; AF647 anti-human IgG (H+L) secondary; GeoMean RL1-H

human CD40 protein expressed on cells (human), sequence (P25942 21-277 limits assumed): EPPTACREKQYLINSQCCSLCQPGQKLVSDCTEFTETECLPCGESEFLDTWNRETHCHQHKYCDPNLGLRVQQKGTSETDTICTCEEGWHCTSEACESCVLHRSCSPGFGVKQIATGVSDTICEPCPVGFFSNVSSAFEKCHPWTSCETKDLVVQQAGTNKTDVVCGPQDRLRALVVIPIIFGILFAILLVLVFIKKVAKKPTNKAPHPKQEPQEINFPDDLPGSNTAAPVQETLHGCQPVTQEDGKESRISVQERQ

EC50 (read off the curve) [1]: 0.07 µg/mL | EC50 (read off the curve) [2]: 0.08 µg/mL
Substance: selicrelumab analogue (antibody)
